Data published in the supplement of paper PMC10567573.

B1: TRIM63 (parent)
chain: ANPYWTSRGSSVSMSGGRFRCPTC

Variants of: B1
Test: protein stability index of a GFP-peptide fusion (GPS, HEK-293T) (PSI 1-6); higher = more stable
Conditions: c terminus: a fixed tail appended
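Also: lentivirally expressed fusions sorted by FACS into six bins by GFP to DsRed ratio, PSI derived from sequencing read proportions per bin multiplied by bin number.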

Protein stability index, by site and new letter:
V12: R 1.32 | I 2.46 | H 1.98 | P 2.78 | E 2.16 | Y 1.69 | S 2.46 | N 2.03 | L 1.29 | D 1.67 | F 1.64 | M 1.63 | T 2.9 | K 2.19 | A 1.49 | W 2.87 | G 2.1
R18: D 2.16 | N 2.24 | F 1.46 | G 1.44 | K 1.44 | T 2.14 | P 1.65 | A 1.89 | V 1.08 | C 1.4 | I 1.37 | M 2.49 | E 2.48 | Q 1.32
G16: Y 2.24 | F 1.32 | N 1.34 | M 1.83 | C 1.91 | Q 1.7 | T 1.96 | R 1.05 | D 2.23 | W 1.8 | E 1.58 | P 2.08 | A 1.72 | H 2.42 | V 1.3 | K 2.1
S13: R 1.52 | A 1.9 | L 2.07 | N 2.18 | E 2.98 | V 1.89 | F 1.93 | H 1.9 | Y 2.18 | C 2.02 | K 2.39 | P 2.21 | T 1.83 | Q 2.13 | W 1.79 | I 1.58 | G 3.37 | D 2.06
S15: D 2.3 | C 2.02 | H 1.87 | A 2.94 | L 2.03 | F 2.61 | I 1.4 | W 1.8 | Q 2.58 | T 1.43 | Y 1.57 | N 1.01 | E 2.1 | P 2.09
M14: S 2.32 | N 2.03 | H 2.21 | Q 1.41 | L 2.21 | P 2.64 | K 1.85 | V 1.86 | G 1.83 | F 2.04
R20: W 2.43 | N 1.57 | D 2.79 | P 2.4 | V 2.13 | G 1.82 | Q 1.84 | A 2.38 | T 1.78 | F 1.27 | L 1.51 | C 2.12 | K 2.61 | M 2.12 | I 1.91 | S 2.32 | E 1.74 | H 1.85 | Y 1.96
C21: F 1.76 | T 2.23 | P 2.72 | L 2.32 | W 1.71 | I 2.67 | M 3.26 | Y 2.15 | K 2.97 | N 2.77 | E 3.46 | R 2.77 | G 2.86 | V 1.9
F19: T 2.94 | Y 2.04 | E 3.29 | N 2.24 | A 2.04 | C 3.67 | H 2.12 | M 2.79 | G 3.02 | P 2.25 | S 3.07 | D 2.75 | R 2.51 | I 2.34 | Q 2.19
G17: C 1.98 | S 2.26 | V 2.77 | P 1.76 | R 2.65 | A 1.84 | I 2.27 | T 1.17 | D 1.43 | W 1.49 | E 1.7 | F 1.72 | L 1.81 | Q 2.07 | N 1.75 | M 2.73 | H 1.53
S11: P 2.14 | V 2.21 | T 2.18 | Y 1.8 | N 2.32 | Q 2.55
P22: F 2.97 | I 2.75 | K 1.98 | C 1.89 | D 2.22 | L 1.24 | H 2.39
